Measured values from the nanobody polyreactivity screen of Harvey et al. (2022).

Experiment: yeast display, Sf9 membrane polyspecificity reagent, FACS + sequencing; frameworks hold sequencing errors
Summary of the method: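 Nanobodies from a synthetic yeast display library (Saccharomyces cerevisiae BJ5465), induced 36–48 hours with galactose, were stained 1 hour at 4 °C with 10% biotinylated, detergent-solubilized Sf9 membrane reagent, enriched on streptavidin microbeads, then FACS-sorted. Anti-HA (expression) and streptavidin (reagent binding) fluorescence set low and high (top ~1%) gates. Polyreactivity labels come from the gate of origin. Genes were colony-PCR amplified, MiSeq 2 × 250 sequenced and filtered by CDR length.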
In the case of “QVQLVESGGGLVQAGGSLRLSCAASGRIFYGYTMGWYREAPGIERELVASITIRGSRTYYADSVKGRFTISRDNAKNTVYLQMTSLKPEDTAVYYCAADFVPARTVHRYDYWGQGTQVTVSS”, the “polyreactivity (PSR sort gate)” value was “low polyreactivity”. With “QVQLVESGGGLVQAGGSLRLSCAASGFIFRPYTMGWYRQAPGKERELVAAITYSGGSSTYYADSVKGRFTISRDNAKNTVYLQMNSLKPEDTAVSYCATTPDYGHDYWGQGTQVTVSS” the “polyreactivity (PSR sort gate)” value was “low polyreactivity”. In the case of “QVQLVVSGGGLVQPGGSLRLSCAATGSTLNSYVMGWYRQAPGKERELVATIRSGSSTNYADSVKGRFTISRDNAKNTVYLLMNSLKPEDTAVYYFAADAYSLCYDSWGQGTLVTVSS”, the “polyreactivity (PSR sort gate)” value was “low polyreactivity”. With “QVQLVESGGGLVQAGGSLRLSCAASGFIFSPYAMGGYRHEPGKEREFVAAITSRVGSTYYADSVKGRFTISRDNAKNTVYLQMNSLKPEDTAVYYCAATTDGLVGRPRYDYWGQGTQVTVSS” the “polyreactivity (PSR sort gate)” value was “low polyreactivity”. With “QVQLVESGGGLVQAGGSLRLSCAASGSIFTAYDMGWYRQAPGKERELVAAINVSAGTTYYADSVKGRFTISRDNAKNTVYLQMNSLKPEDTAVYYCAATFGGWGYVYVHYYYWGQGTQVTVSS” the “polyreactivity (PSR sort gate)” value was “high polyreactivity”. In the case of “QVQLVESGGGLVQAGGSLRLSCAGSGSIFGEYVMGCYRQATVKERELVADISWRDGDTYYADSVKGRFTISRDNAKNTVYLQMNSLKPEDTAVYYFAADVIVPESYGYWPLSYYYLGQGTQVTVSS”, the “polyreactivity (PSR sort gate)” value was “low polyreactivity”. With “QVQLVESGGGLVKAGGSLRLSCAASGITFYIYDMGWYRQAPGKERELVATISWSDGRTYYADSVKGRFTISRDNAKNTVYLQMNSLKPEDTAVYYCASDWWYYQFDYEYWGQGTQVTVSS” the “polyreactivity (PSR sort gate)” value was “low polyreactivity”. With “QVQLVESVGGLVQAGGSLRLSCAASGRPFKKYAMGCYRQAPGKERALVAAITGSGGSTYYADAVKGRFTSSRDNAKKTVYLQMNSLKPEDTAVYYCAAYAYGVWHSHDGGNYWGQGTQVTVSS” the “polyreactivity (PSR sort gate)” value was “low polyreactivity”. In the case of “QVQLVESGGGLVQAGGSLRLSCAASGRTFGLYAMGWYRQAPGKERELVAAIDQSTGSTYYADSVKGRFTISRDNSKNTVYLQMNSLKQEDTAVYYCAAEEASTVRYYWYDYWGLGTQVTVSS”, the “polyreactivity (PSR sort gate)” value was “high polyreactivity”. In the case of “QVQLVESGGGLVQAGGSLRLSCAASGSIFDVNAMGWSRQPPGKERELVAVISSSDSTDYADSVKGRFTISRDNAKNTVYLQMNSLKPEDTAVYYCAADEYQDRPDDYWGQGTQVTVSS”, the “polyreactivity (PSR sort gate)” value was “low polyreactivity”. For “QVQLVESGGGLVQAGGSLRLSCAASGRTFYAYAMGWYRQAPGKERELVAAIRISGTSTYYADSVKGRFTISRDNAKNTVYLQMNSLKPEDTAVYYCARYVKLSGYGFYYWGQGTQVTVSS”, the “polyreactivity (PSR sort gate)” value was “high polyreactivity”. For “QVQLVESGGGLVQAGGSLRLSCAASGRIFSRNTMGWYRQAPGKERELVAAISWRGGSTYYADSVKGRFTISRDNAKNTVYLQMNSLKPEDTAVFYCAAVVRSPAYDYWGQGTQVSVSS”, the “polyreactivity (PSR sort gate)” value was “high polyreactivity”. In the case of “QVQLVESGGGLVQAGGSLRLSCAASGSTFRNYAMGWYRQAPGKERELVAAITKRGGTTYYADSVKGRFTISRDNAKNTVYLQMNSLKPEDTAVYYCAARVKGQWNTYDYWGQVTQVTVSS”, the “polyreactivity (PSR sort gate)” value was “high polyreactivity”. In the case of “QVQLVESAGGLVQAGGSLSLSCAASGINFAWYVMGWYRQEPGKERELVAAITQSGGSTFYADSVKGRFTISRDNAKNTVYLQMNSLKPEDTAVYYCAAESRSTWIHSRDYWGQGTQVTVSS”, the “polyreactivity (PSR sort gate)” value was “low polyreactivity”. In the case of “QVQLVESGGGLVQAGGSLRLSCAASGRIFDGNAMGWYRQAPGKERELVATITRGGRTNYADSVKGRFTISRDNAKNTVYLQMNTLKPEDTAVYYCATSYPGYAYNQAWYPYGYWGQGTQVTVSS”, the “polyreactivity (PSR sort gate)” value was “low polyreactivity”. For “QVQLVESGGGLVQAGGSLRLSCAASGSTFDYSGMGWDIQAPGKERELVATITRRGGNTYYADSVKGRITISRDNANNTDYLQMNSLKPEDTAVYNCNVTPVRGSPEYGNWGQGTQVTVSS”, the “polyreactivity (PSR sort gate)” value was “high polyreactivity”. For “QVQLVESGGGLVQAGGSLRLSCAASGSIYLIYAMGWYRQAPGKERELDAAISRSGGHTYYADSVKGRFTISRDNAKITVYLQMNSLKPEDTAVYYCAAKSYSSGTYGYNYWGQGTQVTVSS”, the “polyreactivity (PSR sort gate)” value was “high polyreactivity”. In the case of “QVQLVESGGGLVQAGGSLRLICAASGFTFRYYAMGWYRQAPGTERELVAAISAGGGSTYYADSVKGRFTISRDNAKNTVYLQMNSLKPEETAVYYCAAAGARPGYDYWGQGTLVTVSS”, the “polyreactivity (PSR sort gate)” value was “high polyreactivity”. For “QDQLVESGGGLVQAGGSLRLSCAASGSTFPYNVMGWYRQAPGKEREFVAAISSSSGSTYYADSVKGRFTISRDNAKNTVYLQLNSLKPEDTAVYYCARRHPRQRQDGKVDYWGQGTQVTVSS”, the “polyreactivity (PSR sort gate)” value was “low polyreactivity”. In the case of “QVQLVESGGGLVQAGGSLRLSCAASGRTFVYNAMGWYRQAPGKERELVAAISSDGASTYYADSVKGRFTISRDNAKNTVYLQMNSLKPEDTAVYYCAADFSYYSYEHYYWGQGTKVTVSS”, the “polyreactivity (PSR sort gate)” value was “low polyreactivity”. With “QVQVVESGGGLVQAGGSLRLSCAASGRTSGNYAMGWYRQAPGKERELVAAIRYSGSSTFYADSVKGRFTISRDNAKHTVYLQMNSLKPEDTAVYYCARDIRRKGFRYDYWGQGTQVTVSS” the “polyreactivity (PSR sort gate)” value was “high polyreactivity”. With “QVQLVESGGGLVQAGGSLRLSCAASGRIFERYAMGWYRQAPGKERELVAAISYRGGRTYYADSVKGRFTISRDNAKNTVYLQMNSLKPEDTAVYYCAAVEVRRVADYGFGLLDYWGQGSQVTVSS” the “polyreactivity (PSR sort gate)” value was “high polyreactivity”. In the case of “QVQLVESGGGLVQAGGSLRLSCAASGYTFYIYAMGWYIQAPGKERELVAAISWTDGSTYYADSVKGRFTISRDNAMNSVYLQMNSLKPEHTAVYYCAKTSLYAGAKEYDYWGQGTQVTVSS”, the “polyreactivity (PSR sort gate)” value was “low polyreactivity”. In the case of “QVQLVESGGGLVQAGGSLRLSCAASGFTLDKYAMGWYRQAPGKERELVAAITWSGGSTYYADSVKGRFTISRDNAKNTVYLQMNSLKPEDTAVYYCNVLRYRLWGQGTQVTVSS”, the “polyreactivity (PSR sort gate)” value was “high polyreactivity”. In the case of “QVQLVESGGGLVQAGGSLRLSCAASGIIFGTYAMGWYRQAPGKERELVAAITRSGGSTYYADSVMGRFTISRDNAKNTVYLQMNSLKPEDTAVYYCAASSTWYGYYIYVFRAYDYWGQGTQGTVSS”, the “polyreactivity (PSR sort gate)” value was “low polyreactivity”. For “QVQLVESGGGLVQAGGSLRVSCAASGFTFYGYAMGWSRQAPGKEREVVAAISWSGGSTYYADSVKGRFTISRDNAKNTVYLLMNRLKAEDTAVYYCAKKWTAPGKGYPRSPGGYGYWGQGTQVTVSS”, the “polyreactivity (PSR sort gate)” value was “high polyreactivity”. In the case of “QVQLVESGGVLVQAGGSLRLSCAASGRTFRRNAMGWYRQAPGKERELVAGIRSSGGSTYYADSVKGRFTISRDNAKNTVYLQINSLKQEDTAVYYCNAVGRPRYGHGFDHWGQGTQVTVSS”, the “polyreactivity (PSR sort gate)” value was “high polyreactivity”. For “QVQLVESGGGLVQAGGSLRLSCAASGFTFGYYAKGWYRQAPGKERELVAGISRGGRTNYADSVKGRFTISRDNAKNTVYLQMNSLKPEDTAVYYCAKDTYYPSSRYNRYYYWGQGSQVTVSS”, the “polyreactivity (PSR sort gate)” value was “high polyreactivity”. In the case of “QVQLVESGGGLVQAGGSLRLSCAASGRTFLTYVMGRYRQAPGKERELVAAITRGGRTNYADSVKGRFTISRDNAKNTVYLQMNSLKPEDTAVYYCARDDTPRYDYWGQGTQVTVSS”, the “polyreactivity (PSR sort gate)” value was “low polyreactivity”. In the case of “QVQHVESGGGLVQAGGSLRLSCAASGSTFDVYALGWDRQAPGKERELVAAISESGSSTYYADSVKGRFTISRDNAKHTVYLQMNSLKPEDTAVYSCNALYYDWHPEYQVIFSYFYYWGQGTQVTVSS”, the “polyreactivity (PSR sort gate)” value was “low polyreactivity”. With “QVQLEESGGGLVQAGGSLRLSCAASGSIFRSNAMGWYRQAPGKERELVAAISSSGGSTYYADSVKGRFTISRDKAKNTVYLQMNSLKPEDTAVYYCAARPSGRGYYLLGYWGQGTQVTVSS” the “polyreactivity (PSR sort gate)” value was “low polyreactivity”. With “QVQLVESGGGLVQAGGSLRLICAASGSIFPRYVMGWSRQAPGKERELVAAITRRGGSTYYADSVKGRFTISRDNAKHTVYLQMNSLKPADTAVYYCNAKYRLEMDWGQGTQVTVSS” the “polyreactivity (PSR sort gate)” value was “high polyreactivity”. In the case of “QVQLVESGGGLVQAGGSLRLSCAASGITFFVYAMGWYRQAPGKERELVAAISSTASTNYADSVKGRFTISRDNAKYTVYLQMNSRKPEDTAVYYCNAGVWSLGTYWQFDYWGQGTQVTVSS”, the “polyreactivity (PSR sort gate)” value was “high polyreactivity”. With “QVQLVESGGGLVQAGGSLRLSCAASGSTFRGYVMGWYRQAPGKERELVAAISRGGGSTYYADSVKGRFTISRDNAKNTVYLQMNSLKPEDTAVYYCATDYSGRQPGKYGYWGQGTQVTVSS” the “polyreactivity (PSR sort gate)” value was “high polyreactivity”. In the case of “QVQLVESGGGLVQAGGRLRLICDASGRIFYRYAIGWYRQAPGKERELVAVITSSGGRTYYADSVKGRFTISRDTAKNTVYLPMNSLKPEDTAVYYCTAYVRRIVRSYYWGQGTQVTVSS”, the “polyreactivity (PSR sort gate)” value was “high polyreactivity”. With “QVQLVESGGGLVQAGGSLRLSCAASGFIFGYYAMGWYRQAPGKERELVAAISKSGTDTYYADSVKGRFTISRDNAKNTVYLQMNSLKPEDTAVYYCNALLRGYSYGYDYWGQGTQVTVSS” the “polyreactivity (PSR sort gate)” value was “high polyreactivity”. In the case of “QVQLVESGGGLLQAGGSLRLSCAASGSIFGGNAMGWYRQAPGKEREFVAAITVSDGSTYYADSVKGRFTISRDNAKNTVYLQMNSLKPEDTAVYYCAAGGFYYPHYDYWGQGSQVTVSS”, the “polyreactivity (PSR sort gate)” value was “low polyreactivity”. With “QVQLVESGGGLVQAGGSLRLSCAASGRTFGAYAMGWYRQAPGKERELVAAISSSGGSTYYADSLKGRFTISRDNAKNTVYLQMNSLKPEDTAVYYCAKGWHRGVGFGYWGQGTQVTVSS” the “polyreactivity (PSR sort gate)” value was “high polyreactivity”. With “QVQLVESGGGLVQAGGSLRLSCAASGRTFGRNTMGWYRQAPGKERELVAGISRSAGRTYYADSVKGRFTISRDNAKNTVYLQMNSLKPEDTAVYYCAARYQGNYRTDKYDYWGQGTQVTVSS” the “polyreactivity (PSR sort gate)” value was “high polyreactivity”. In the case of “QVQLVESGGGLVQAGGSLRLSCAASGSIFGDYVMGWYRQAPGNERELVAAINRGGSTYYADSVKGRFSISRDNAKNTVYLQMNSLTAEDTAVYFCAAGYPSWYYCYPYDSWGQGTQVTVSS”, the “polyreactivity (PSR sort gate)” value was “low polyreactivity”. With “QVQLVESGGGLVQAGGSLRLSCAASGSTFNSYAMGWYRQAPGKESELVAAITSSGSRTRYADSVKGRFTISRDNAKNTVYLQMNSLKPEDTAVYYCAAVYRLKSGGVWRDSQFGYWGQGTQVTVSS” the “polyreactivity (PSR sort gate)” value was “high polyreactivity”. For “QVQLVESGGGLVQAGGSLRLSCAASGRTFYYYAMGWYRQAPGKERELVAAISGSGTNTYYADSVKGRFTISRDNAKNTVYLQMNSLKPEDTAVYYCAAEYFGFYTDGGVFDLYYWGQGTQVTVSS”, the “polyreactivity (PSR sort gate)” value was “low polyreactivity”. In the case of “QVQLVESGGGLVQAGGSLRLSCAASGITFGPYAMGWYRQAPGKERELVAAISYSGGRTYYADSVKGRFTISRDNAKNTVYLQMNSLKPEDTAVYFCARRYGYFGYEYDYWGQGTQVTVSS”, the “polyreactivity (PSR sort gate)” value was “high polyreactivity”.
